{"source": "paper doi:10.1101/2025.03.31.646301", "about": "“Discovery of Tankyrase scaffolding inhibitor specifically targeting the ARC4 peptide binding domain” (bioRxiv, 2025)", "biological_target": "T1, TNKS2 ARC4 fused with mCerulean (CFP) (human, UniProt Q9H2K2 488-649)", "T1 construct": "Tankyrase 2 (TNKS2), human, ankyrin repeat cluster 4 (ARC4); residues 487-649 are stated only for the crystallised TNKS2 ARC4; Vector pNIC-CFP: mCerulean inserted between the 6xHis-tag and the TEV site of pNIC28-Bsa4; the label reads CFP first, so the tags are probably N-terminal; also called CFP-TNKS2 ARC4; source: E. coli BL21(DE3), purified (IMAC, SEC)", "T1 sequence": "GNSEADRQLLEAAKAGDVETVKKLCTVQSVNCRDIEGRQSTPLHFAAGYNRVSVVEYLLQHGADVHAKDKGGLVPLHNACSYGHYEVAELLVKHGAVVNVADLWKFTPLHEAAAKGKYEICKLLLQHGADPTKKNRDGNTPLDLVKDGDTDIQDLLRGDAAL", "assay": "FRET or BRET; ratiometric FRET in solution: CFP-TNKS1/2 ARC 100 nM and YFP-REAGDGEE 200 nM, 10 mM Bis-Tris Propane pH 7, 3% PEG 20000, 0.01% Triton X-100, 0.5 mM TCEP; small-molecule compounds added (screen at 30 uM, dose response); 1 M guanidine hydrochloride as control of total inhibition", "settings": "both partners purified", "note": "Ends that are not written are not given here."}
{"binder": "REAGDGEE (also: fused with mCitrine (YFP), Vector pNIC-YFP: mCitrine inserted between the 6xHis-tag and the TEV site of pNIC28-Bsa4; the label reads YFP first, so the peptide probably stands at the C-terminal end of the fusion; also called optimized peptide; source: E. coli BL21(DE3), purified (IMAC, SEC))", "note": "[8-residues peptide optimized for the binding of ARCs (REAGDGEE) fused with mCitrine (YFP)]", "values": [{"measurement": "binding result", "result": "binds"}]}
